According to patent US20190177366A1 (published 2019):
Bridge positions count the residues as written; N and C are the ends. Ends that are not written are not given here.

Experiments:
[1] = target: T1, proprotein convertase subtilisin/kexin type 9 (PCSK9) (human, UniProt Q8NBP7 31-152); experiment: phage competition ELISA; competing phage pep2-8
[2] = target: T1, proprotein convertase subtilisin/kexin …; experiment: phage competition ELISA; competing phage K9gvpep4
[3] = target: T1, proprotein convertase subtilisin/kexin …; experiment: competition

T1 sequence (Q8NBP7 31-152, chain 1 of 2): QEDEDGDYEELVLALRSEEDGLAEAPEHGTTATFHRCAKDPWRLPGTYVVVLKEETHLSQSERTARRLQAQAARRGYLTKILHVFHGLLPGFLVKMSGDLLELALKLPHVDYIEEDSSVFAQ
T1 sequence (Q8NBP7 153-692, chain 2 of 2): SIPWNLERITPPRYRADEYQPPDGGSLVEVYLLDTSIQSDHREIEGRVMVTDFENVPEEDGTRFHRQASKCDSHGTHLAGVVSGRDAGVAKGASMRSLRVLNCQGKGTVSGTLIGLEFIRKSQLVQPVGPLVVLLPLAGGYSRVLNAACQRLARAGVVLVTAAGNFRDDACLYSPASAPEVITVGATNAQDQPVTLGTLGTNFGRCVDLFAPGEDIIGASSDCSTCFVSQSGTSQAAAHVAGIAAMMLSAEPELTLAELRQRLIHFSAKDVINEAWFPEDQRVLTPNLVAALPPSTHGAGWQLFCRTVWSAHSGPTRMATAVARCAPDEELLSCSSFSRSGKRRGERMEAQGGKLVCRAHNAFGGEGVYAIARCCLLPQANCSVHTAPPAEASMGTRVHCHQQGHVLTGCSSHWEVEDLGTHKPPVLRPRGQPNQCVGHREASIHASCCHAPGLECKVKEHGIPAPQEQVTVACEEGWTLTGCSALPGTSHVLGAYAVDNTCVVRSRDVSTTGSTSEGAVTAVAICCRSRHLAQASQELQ

Binder | IC50 [1] [nM] | IC50 [2] [nM] | IC50 [3] [nM]
Ac-TVFTSWEEYLDWVGSGCRLPWNLQRIGLPC-NH2 (disulfide 17-30 (inferred)) [Compound 19] | 6.19 | 3.44 | 
Ac-TVFTSWEEYLDWVGSGDLMPWNLVRIGLLR-NH2 [Compound 20] | 14.5 | 2.69 | 
SGCRLPWNLQRIGLPC (not fully specified (bridges); cysteine pairing not given here) [K9gvpep4] |  |  | 318
SGDLMPWNLVRIGLLR [K9gvpep7] |  |  | 635
